Measurements as given in PMC6739470, “Modular Protein Ligation: A New Paradigm as a Reagent Platform for Pre-Clinical Drug Discovery” (Scientific Reports, 2019).

B1: sCD73flagACK-biotin (soluble CD73 truncated after S552, C-terminal flag-Ala, ligated to C[K-PEG2-Biotin]) (enzyme, human, UniProt P21589 27-552, looked up)
chain: WELTILHTNDVHSRLEQTSEDSSKCVNASRCMGGVARLFTKVQQIRRAEPNVLLLDAGDQYQGTIWFTVYKGAEVAHFMNALRYDAMALGNHEFDNGVEGLIEPLLKEAKFPILSANIKAKGPLASQISGLYLPYKVLPVGDEVVGIVGYTSKETPFLSNPGTNLVFEDEITALQPEVDKLKTLNVNKIIALGHSGFEMDKLIAQKVRGVDVVVGGHSNTFLYTGNPPSKEVPAGKYPFIVTSDDGRKVPVVQAYAFGKYLGYLKIEFDERGNVISSHGNPILLNSSIPEDPSIKADINKWRIKLDNYSTQELGKTIVYLDGSSQSCRFRECNMGNLICDAMINNNLRHTDEMFWNHVSMCILNGGGIRSPIDERNNGTITWENLAAVLPFGGTFDLVQLKGSTLKKAFEHSVHRYGQSTGEFLQVGGIHVVYDLSRKPGDRVVKLDVLCTKCRVPSYDPLKMDEVYKVILPNFLANGGDGFQMIKDELLRHDSGDQDINVVSTYISKMKVIYPAVEGRIKFSTGS
modifications: C-terminal Ala-Cys-Lys after the flag tag (Ala from the construct, Cys-Lys dipeptide added by expressed protein ligation); PEG2-biotin on the epsilon-amino group of the lysine
notes: soluble CD73 (5'-nucleotidase), truncated after residue S552; Uniprot P21589; Chain order: CD73(to S552)-flag-Ala-Cys-Lys(PEG2-biotin); Secreted protein; also called CD73 labeled with CK-biotin; sCD73flagACK-label; source: HEK293 cells transduced with BacMam, secreted as GyrA-CBD fusion; captured on chitin resin, ligated in 36 mM MESNA, sized on Superdex 200; not shown: FLAG, C-terminal, kept
B2: sCD73-flag-CK-fluorescein (soluble CD73 truncated after S552, C-terminal flag-Ala, ligated to C[K-fluorescein]) (enzyme, human, UniProt P21589 27-552, looked up)
chain: B1 chain
modifications: C-terminal Ala-Cys-Lys after the flag tag (Ala from the construct, Cys-Lys dipeptide added by expressed protein ligation); fluorescein on the epsilon-amino group of the lysine
notes: soluble CD73 (5'-nucleotidase), truncated after residue S552; Uniprot P21589; Chain order: CD73(to S552)-flag-Ala-Cys-Lys(fluorescein); Secreted protein; also called CD73 EPL fluorescein labeled; CD73 labeled with CK-fluorescein; source: HEK293 cells transduced with BacMam, secreted as GyrA-CBD fusion; captured on chitin resin, ligated in 36 mM MESNA, sized on Superdex 200; not shown: FLAG, …

Target: the molecule itself
Assay: SEC; Superdex 200 column, final labeled products, compared with MW standards; no aggregate peak observed

Protein | stoichiometry N
B1 | 2
B2 | 2
